{
  "source": "patent WO2005095457A2",
  "about": "(dated 2005)",
  "binders": {"B1": {"name": "15E10 chimaeric antibody (antibody, human IgG1, V domains shown)", "VH": "QVQLKQSGPGLVQPSQSLSITCTVSGFSLTNYGVHWVRQSPGKGLEWLGVIWRGGSTDYNAAFMSRLSITKDNSRSQVFFKMNSLQADDTAIYYCAKSPNSNFYWYFDVWGTGTTVTVSS", "VL": "QIVLTQSPTIMSASPGEKVTMTCSGSSSVSYMYWYQEKPGSSPRLLIEDTSNLASGVPARFSGSGSGTSYSLTISRMEAEDAATYYCQQWSSYPPTFGSGTKLEIK", "notes": "expressed in CHO; also called chimaeric 15E10; 15E10 chimaera"}, "B2": {"name": "15E10 murine antibody (antibody, mouse IgG2a, V domains shown)", "VH": "B1 VH", "VL": "B1 VL", "notes": "also called clone 15E10; parent murine 15E10"}, "B3": {"name": "10D3 chimaeric antibody (antibody, human IgG1, V domains shown)", "VH": "EVQLQQSGPELVKPGASVKISCKASGYIFTDYNMDWVKQSHGKKLEWIGDINPNNGGTIDNQKFKDKATLTVDKSSSTAYMELRSLTSEDTAVYYCARGIYYYGSHYFDYWGQGTTLTVSS", "VL": "QIVLTQSPAIMSASPGEKVTMTCSATSSVSVMHWFQKKSGTSPKRWIYDTSKLASGVPTRFSGSGSGTSYSLTISSMEAEDTATYYCQQWSSNPLTFGSGTKLELK", "notes": "expressed in CHO; also called chimaeric 10D3; chimeric 10D3"}, "B4": {"name": "humanised 15E10 antibody B3L2 (antibody, human IgG1, kappa, V domains shown)", "VH": "QVQLVESGGGVVQPGRSLRLSCAASGFSLTNYGVHWVRQAPGKGLEWVAVIWRGGSTDYNAAFMSRFTISKDNSKNTLYLQMNSLRAEDTAVYYCAKSPNSNFYWYFDVWGRGTLVTVSS", "VL": "EIVLTQSPATLSLSPGERATLSCSGSSSVSYMYWYQQKPGQAPRLLIEDTSNLASGIPARFSGSGSGTDYTLTISNLEPEDFAVYYCQQWSSYPPTFGQGTKLEIKR", "notes": "Human IgG1 wild type / kappa; purified from CHO; also called B3L2 wt; 15E10-B3L2"}},
  "key": {"[1]": {"target": "T1, cynomolgus monkey OSM (cOSM) (cynomolgus monkey, UniProt P13725 26-221 (human entry), limits assumed)", "T1 construct": "also called cynomolgus OSM", "T1 chain": "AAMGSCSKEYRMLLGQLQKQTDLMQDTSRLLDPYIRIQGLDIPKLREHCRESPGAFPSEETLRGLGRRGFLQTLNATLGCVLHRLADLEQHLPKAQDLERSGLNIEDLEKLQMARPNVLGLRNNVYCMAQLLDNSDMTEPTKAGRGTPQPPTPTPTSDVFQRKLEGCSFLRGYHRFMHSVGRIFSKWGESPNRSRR", "assay": "gp130 inhibition ELISA and KB cell assay"}, "[2]": {"target": "T1, cynomolgus monkey OSM (cOSM)", "assay": "gp130 inhibition ELISA, cynomolgus OSM"}, "[3]": {"target": "T2, glycosylated human OSM (hOSM) produced in CHO cells (human) (UniProt P13725)", "T2 sequence (chain, glycosylated (CHO cell glycosylated))": "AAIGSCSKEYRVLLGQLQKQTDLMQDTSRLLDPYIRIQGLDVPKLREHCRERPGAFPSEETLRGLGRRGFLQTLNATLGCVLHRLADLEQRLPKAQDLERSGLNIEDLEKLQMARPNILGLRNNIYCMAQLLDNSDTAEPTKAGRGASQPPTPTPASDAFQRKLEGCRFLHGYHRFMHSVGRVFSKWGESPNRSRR", "assay": "competition ELISA: murine 10D3 titrated against 15E10-B3L2 (150 ng/ml, the competitor) on soluble glycosylated hOSM (50 ng/ml), capture by OM4-11.31, anti-human gamma chain detection"}, "[4]": {"target": "T3, human Oncostatin M (hOSM) (human, UniProt P13725 26-221)", "T3 construct": "also called human OSM", "T3 sequence": "T2 sequence (chain, glycosylated (CHO cell glycosylated))", "assay": "gp130 ELISA, hOSM"}, "[5]": {"target": "T1, cynomolgus monkey OSM (cOSM)", "assay": "gp130 inhibition ELISA, purified antibodies"}},
  "data": [
    {"binder": "B1", "values": [
      {"measurement": "binding result", "setting": "[1]", "value": "binds"}
    ]},
    {"binder": "B2", "values": [
      {"measurement": "binding result", "setting": "[2]", "value": "binds"}
    ]},
    {"binder": "B3", "values": [
      {"measurement": "% inhibition of 15E10 at equimolarity (0.15μg/ml)", "setting": "[3]", "value": 62.3, "unit": "%"},
      {"measurement": "IC50", "setting": "[4]", "value": 0.032, "unit": "µg/mL"}
    ]},
    {"binder": "B4", "values": [
      {"measurement": "binding result", "setting": "[5]", "value": "binds"}
    ]}
  ]
}
